Assay results: US20220088193A1 (AGONOX, published 2022)

How the values were obtained:
[1] = molecular target: T1, human CD55 (human, UniProt P08174 35-353, limits assumed); assay: ELISA on human CD55, HRP-anti-mouse secondary, A450; left panel 'Binding to human CD55 by ELISA', EC50 table below the graph
T1 construct: also called Decay-Accelerating Factor; DAF
T1 sequence (looked up): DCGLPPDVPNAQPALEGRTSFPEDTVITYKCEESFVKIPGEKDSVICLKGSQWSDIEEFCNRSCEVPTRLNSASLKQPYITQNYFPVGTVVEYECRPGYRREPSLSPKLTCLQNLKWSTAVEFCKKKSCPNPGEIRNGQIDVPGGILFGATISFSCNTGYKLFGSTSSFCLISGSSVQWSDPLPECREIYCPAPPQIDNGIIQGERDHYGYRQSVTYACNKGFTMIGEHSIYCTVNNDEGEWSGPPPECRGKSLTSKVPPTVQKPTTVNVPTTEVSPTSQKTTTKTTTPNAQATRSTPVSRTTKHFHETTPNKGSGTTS
Description: (§1) EC₅₀ values were obtained by fitting to a sigmoid non-linear equation, using PRISM. These human antibodies contained mouse IgG2A Fc domains for use in in vivo mouse tumor models and were detected by HRP-anti-mouse secondary antibodies.
as §1

[2] = molecular target: T2, mouse CD55 (mouse, UniProt Q61475 35-362, limits assumed); assay: ELISA on mouse CD55, HRP-anti-mouse secondary, A450; right panel 'Binding to mouse CD55 by ELISA', EC50 table below the graph
T2 sequence (looked up): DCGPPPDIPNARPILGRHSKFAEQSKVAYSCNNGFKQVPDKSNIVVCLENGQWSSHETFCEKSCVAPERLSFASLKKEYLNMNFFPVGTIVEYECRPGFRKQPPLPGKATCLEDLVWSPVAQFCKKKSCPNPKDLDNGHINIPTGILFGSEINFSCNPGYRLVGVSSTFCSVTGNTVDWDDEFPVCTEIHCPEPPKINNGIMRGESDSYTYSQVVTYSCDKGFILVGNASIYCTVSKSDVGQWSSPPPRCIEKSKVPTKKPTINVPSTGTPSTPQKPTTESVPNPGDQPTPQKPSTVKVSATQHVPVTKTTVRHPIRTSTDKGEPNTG
Description: as §1, §1

[3] = molecular target: T1, human CD55; assay: library screen, species specificity summary
[4] = molecular target: T3, Plate-bound CD55 (Homo sapiens (Human), UniProt P08174 35-353); assay: competition ELISA; plate-bound CD55 pre-incubated with the unlabeled competitor P5-2-2A, washed, biotinylated P5-1J titrated, Streptavidin-HRP
T3 sequence: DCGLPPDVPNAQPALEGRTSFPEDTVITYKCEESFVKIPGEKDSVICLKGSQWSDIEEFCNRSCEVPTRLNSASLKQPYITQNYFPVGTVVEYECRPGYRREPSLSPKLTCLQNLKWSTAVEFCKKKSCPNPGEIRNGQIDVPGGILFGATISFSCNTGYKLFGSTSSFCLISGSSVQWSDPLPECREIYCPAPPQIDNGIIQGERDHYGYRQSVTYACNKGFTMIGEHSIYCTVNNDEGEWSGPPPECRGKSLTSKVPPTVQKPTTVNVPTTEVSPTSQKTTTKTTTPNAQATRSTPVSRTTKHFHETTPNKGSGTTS
Protocol: (§2) FIG. 3: Competition ELISA data for comparing the epitopes of the mouse+human CD55 binding antibodies.
(§3) Comparison of the epitopes of the mouse+human CD55-binding antibodies was performed by competition ELISA.

[5] = molecular target: T3, Plate-bound CD55; assay: competition ELISA on plate-bound CD55, streptavidin-HRP, A450; plate pre-incubated with unlabeled competitor P5-4 at 1.0 ug/ml
Protocol: as §2, §3

[6] = molecular target: T3, Plate-bound CD55; assay: competition ELISA on plate-bound CD55, streptavidin-HRP, A450; plate pre-incubated with control competitor mIgG2A at 1.0 ug/ml (curve lies on that of None)
Protocol: as §2, §3

[7] = molecular target: T3, Plate-bound CD55; assay: competition ELISA on plate-bound CD55, streptavidin-HRP, A450; competitor antibody: None
Protocol: as §2, §3

[8] = molecular target: T3, Plate-bound CD55; assay: competition ELISA on plate-bound CD55, streptavidin-HRP, A450; plate pre-incubated with unlabeled competitor P5-2-2A at 1.0 ug/ml
Protocol: as §2, §3

[9] = molecular target: T3, Plate-bound CD55; assay: competition ELISA on plate-bound CD55, streptavidin-HRP, A450; plate pre-incubated with unlabeled competitor P5-1J at 1.0 ug/ml
Protocol: as §2, §3

[10] = molecular target: T3, Plate-bound CD55; assay: competition ELISA; plate-bound CD55 pre-incubated with the unlabeled competitor P5-1J, washed, biotinylated P5-1J titrated, Streptavidin-HRP
Protocol: as §2, §3

[11] = molecular target: T2, mouse CD55; assay: ELISA on mouse CD55, HRP-anti-mouse secondary, A450; right panel 'Binding to mouse CD55 by ELISA'
Description: as §1, §1

B1: P5-1 with mouse IgG2A Fc domains (antibody, V domains shown)
VH: EVQLVESGGGLVQPGGSLRLSCAASGFTFSSYYIHWVRQAPGKGLEWVAAISSSSGSTYYADSVKGRFTISADTSKNTAYLQMNSLRAEDTAVYYCARERYFYGDFVFDYWGQGTLVTVSS
VL: DIQMTQSPSSLSASVGDRVTITCRASQSVSSAVAWYQQKPGKAPKLLIYSASSLYSGVPSRFSGSRSGTDFTLTISSLQPEDFATYYCQQYYSSPLTFGQGTKVEIKR
notes: not shown: mouse IgG2A Fc domain
[1]
  EC50: 4.27 ng/mL
[2]
  EC50: 3.46 ng/mL

B2: P5-3 (antibody, V domains shown)
VH: EVQLVESGGGLVQPGGSLRLSCAASGFTFSSYYIHWVRQAPGKGLEWVAAISSSSGSTYYADSVKGRFTISADTSKNTAYLQMNSLRAEDTAVYYCAREDWHRYERRFYEGFDYWGQGTLVTVSS
VL: DIQMTQSPSSLSASVGDRVTITCRASQSVSSAVAWYQQKPGKAPKLLIYSASSLYSGVPSRFSGSRSGTDFTLTISSLQPEDFATYYCQQYYSSPLTFGQGTKVEIKR
[3]
  binding result: binds

B3: P5-1J (antibody, V domains shown)
VH: EVQLVESGGGLVQPGGSLRLSCAASGFTFSHHYIHWVRQAPGKGLEWVAAISTGGGTTYYADSVKGRFTISADTSKNTAYLQMNSLRAEDTAVYYCARERYFNGDFIYDYWGQGTLVTVSS
VL: DIQMTQSPSSLSASVGDRVTITCRASQSVSSAVAWYQQKPGKAPKLLIYSASSLYSGVPSRFSGSRSGTDFTLTISSLQPEDFATYYCQQYYSTPLTFGQGTKVEIKR
notes: also called biotinylated P5-1J; unlabeled P5-1J
[4]
  fold shift in EC50: 20 fold
[5]
  EC50: 24.1 ng/mL
[6]
  EC50: 1.96 ng/mL
[7]
  EC50: 2.13 ng/mL
[8]
  EC50: 21.4 ng/mL
[9]
  EC50: 108 ng/mL
[10]
  fold shift in EC50: 100 fold

B4: P5-1J with mouse IgG2A Fc domains (antibody, V domains shown)
VH: EVQLVESGGGLVQPGGSLRLSCAASGFTFSHHYIHWVRQAPGKGLEWVAAISTGGGTTYYADSVKGRFTISADTSKNTAYLQMNSLRAEDTAVYYCARERYFNGDFIYDYWGQGTLVTVSS
VL: DIQMTQSPSSLSASVGDRVTITCRASQSVSSAVAWYQQKPGKAPKLLIYSASSLYSGVPSRFSGSRSGTDFTLTISSLQPEDFATYYCQQYYSTPLTFGQGTKVEIKR
notes: as for B1
[1]
  EC50: 4.07 ng/mL
[2]
  EC50: 3.21 ng/mL

B5: P5-2 (antibody, V domains shown)
VH: EVQLVESGGGLVQPGGSLRLSCAASGFTFSSYYIHWVRQAPGKGLEWVAAISSSSGSTYYADSVKGRFTISADTSKNTAYLQMNSLRAEDTAVYYCAREVRIHGDFVLDYWGQGTLVTVSS
VL: DIQMTQSPSSLSASVGDRVTITCRASQSVSSAVAWYQQKPGKAPKLLIYSASSLYSGVPSRFSGSRSGTDFTLTISSLQPEDFATYYCQQYYSSPLTFGQGTKVEIKR
notes: also called parent Ab P5-2
[3]
  binding result: binds

B6: P5-4 with mouse IgG2A Fc domains (antibody, V domains shown)
VH: EVQLVESGGGLVQPGGSLRLSCAASGFTFSSYYIHWVRQAPGKGLEWVAAISSSSGSTYYADSVKGRFTISADTSKNTAYLQMNSLRAEDTAVYYCAREDYYWGDFVFDYWGQGTLVTVSS
VL: DIQMTQSPSSLSASVGDRVTITCRASQSVSSAVAWYQQKPGKAPKLLIYSASSLYSGVPSRFSGSRSGTDFTLTISSLQPEDFATYYCQQYYSSPLTFGQGTKVEIKR
notes: as for B1
[1]
  EC50: 3.68 ng/mL
[2]
  EC50: 22.7 ng/mL

B7: P5-2-2A with mouse IgG2A Fc domains (antibody, V domains shown)
VH: EVQLVESGGGLVQPGGSLRLSCAASGFTFSSYYIHWVRQAPGKGLEWVAAISSSSGSTYYADSVKGRFTISADTSKNTAYLQMNSLRAEDTAVYYCAREARFHGDFILDYWGQGTLVTVSS
VL: DIQMTQSPSSLSASVGDRVTITCRASQSVSSAVAWYQQKPGKAPKLLIYSASSLYSGVPSRFSGSRSGTDFTLTISSLQPEDFATYYCQQYYITPLTFGQGTKVEIKR
notes: as for B1
[1]
  EC50: 4.72 ng/mL
[11]
  EC50 (read off the curve): ~6 ng/mL
